# Experimental data reported in publication PMC6170785, “Synthetic Fragments of Receptor for Advanced Glycation End Products Bind Beta-Amyloid 1–40 and Protect Primary Brain Cells From Beta-Amyloid Toxicity” (Frontiers in Neuroscience, 2018).
# Legend:
# [1] = test system: primary cultures of neurons and astrocytes derived from hippocampal and cortical areas of rats' brains; assay: Caspase 3 activity assay (NucView 488) after Aβ 1–42 treatment; type: cell-based, rat; conditions: pre-incubation 3 h with 10 μM peptide, then 1 h with 5 μM Aβ 1–42, NucView 488, confocal, mean (SEM) of N = 6–28 fields
# Experimental: Mixed cultures of hippocampal and cortical neurons and glial cells were prepared as described previously ([Vaarmann et al., 2010]) with modifications, from Sprague-Dawley rat pups 2–4 days post-partum (UCL breeding colony). […] Hippocampi and cortex were removed into ice-cold PBS (Ca^2+, Mg^2+-free, Invitrogen, Paisley, United Kingdom). The tissue was minced and trypsinised (0.25% for 15 min at 37°C), triturated and plated on Poly-D-lysine-coated coverslips and cultured in Neurobasal A medium (Invitrogen, Paisley, United Kingdom) supplemented with B-27 (Invitrogen, Paisley, United Kingdom) and 2 mM L-glutamine. […]
# For the measurement of caspase 3 activation, cells were loaded for 15 min at room temperature with 10 μM NucView 488 caspase 3 substrate (Biotium, United States) in HBSS. […] The 488 nm argon laser was used to excite NucView 488 fluorescence, which was measured using a bandpass filter from 510 and 560 nm. […] The number of cells with activated caspase 3 and the number of all visible cells was quantified manually in each field and the percentage of dead cells was calculated by dividing the number of caspase 3-positive cells by the number of all cells counted in one field. The differences between the groups were evaluated using the two-sample t-test. All data were expressed as mean ± SEM. […]
# Aβ 1–40 = molecular target: T1, Aβ 1–40 (Homo sapiens, UniProt P05067); assay: Fluorescent titration of RAGE fragments by Aβ 1–40; type: binding; conditions: tryptophan fluorescence titration with Aβ 1–40; 25 mM Tris-HCl, 100 mM NaCl, 5 mM EDTA, pH 7.5; peptide 0.5 μM (P1) or 2 μM (P2–P6); excitation 285 nm, emission 355 nm; mean ± SEM of three independent measurements
# T1 construct: Lyophilized synthetic Aβ 1–40 was dissolved in mili-Q water; host or cells: chemical synthesis (synthetic peptide)
# T1 sequence (P05067 672-711 limits assumed): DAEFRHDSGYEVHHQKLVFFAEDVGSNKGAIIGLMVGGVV
# Experimental: The fluorescence titrations of synthetic peptides were performed using Fluoromax 3 fluorescence spectrophotometer (Horiba Jobin Yvon, Germany). Titrations were conducted in a quartz cuvette with 2 ml of titration buffer (25 mM Tris-HCl, 100 mM NaCl, 5 mM EDTA, pH 7.5). The concentration of peptide (60–76) which has two tryptophan residues was 0.5 μM. Whereas peptides (60–70), (60–62), (60–65), (62–73), and (65–76) have only one Trp residue, their concentration was 2 μM to enhance the signal. Lyophilized synthetic Aβ 1–40 was dissolved in mili-Q water at a concentration of 1 mM. […]
# The fluorescence spectrum was measured after each addition of beta-amyloid. […] Emission was detected in the range of […]. The maximum of fluorescence intensity was found at 355 nm. […]
# where [S] – concentration of Aβ 1–40 in cuvette; ΔF is the difference of intensity between experiment in absence of Aβ 1–40 and experiment with beta-amyloid at the certain concentration and ΔFmax is the maximal fluorescence change ([Huang et al., 2016]). […]
# The dissociation constant Kd was found by multiplication of the calculated slope factor and ΔFmax. For each peptide the dissociation constant was measured three times independently. Dissociation constants were expressed as mean ± SEM. P-values were measured by Mann-Whitney test to estimate the differences between each of obtained dissociation constants.
# [2] = molecular target: Beta-amyloid 1-40 Abeta 1-40 (Homo sapiens, UniProt P05067); assay: tryptophan fluorescence titration
# Chain of Beta-amyloid 1-40 Abeta 1-40 (P05067 1-40): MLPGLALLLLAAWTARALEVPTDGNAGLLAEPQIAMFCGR
Molecule,Kd [2],other results
"SPQGGGPWDSVA [Peptide P5, synthetic fragment (65–76) of human RAGE]",,"Percentage of cells with activated caspase 3, Mean [1]: 14.25%; Percentage of cells with activated caspase 3, Mean ([1]; SEM): 14.25 ± 3.22%; Kd (Aβ 1–40): No binding"
KVLSPQGGGPWD [RAGE fragment P6 (62-73)],1530 nM,
AWKVLSPQGGG [RAGE fragment P2 (60-70)],4060 nM,
AWKVLS [RAGE fragment P4 (60-65)],2810 nM,
AWK [RAGE fragment P3 (60-62)],840 nM,
AWKVLSPQGGGPWDSVA [RAGE fragment P1 (60-76)],1390 nM,
